The results in this text go back to patent EP1694709B1 (Fraunhofer-Gesellschaft zur Förderung der angewandten …, dated 2010).

The target in assay [1] is CD64 (human) (UniProt P12314). As to the kind of experiment: cell-based or functional assay.
For assay [2], the target named is CD64 (human) (UniProt P12314).
The next assay has as its target CD64 (human, UniProt P12314 16-374). As to the kind of experiment: cell-based or functional assay.

m22(scFv)2-ETA': in the assay with CD64 (human) [1], the IC50 of growth inhibition (XTT-based colorimetric assay) on HL-60 cells turned out to be 0.0117 µg/mL and the IC50 of growth inhibition (XTT-based colorimetric assay) on U937 cells is 0.0135 µg/mL.
In the assay with CD64 (human) [2], moAb m22 (antibody) displayed a % inhibition of m22(scFv)-ETA' binding of 70%.

B1: m22(scFv)-ETA' (scFv)
chain 1: QVQLVESGGGVVQPGRSLRLSCSSSGFIFSDNYMYWVRQAPGKGLEWVATISDGGSYTYYPDSVKGRFTISRDNSKNTLFLQMDSLRPEDTGVYFCARGYYRYEGAMDYWGQGTPVTVSS
chain 2: DIQLTQSPSSLSASVGDRVTITCKSSQSVLYSSNQKNYLAWYQQKPGKAPKLLIYWASTRESGVPSRFSGSGSGTDFTFTISSLQPEDIATYYCHQYLSSWTFGQGTKLEIK
Turning to B1, in the assay with CD64, the “IC50 of growth inhibition (XTT-based colorimetric assay) on HL-60 cells” value was 0.0116 µg/mL and the “IC50 of growth inhibition (XTT-based colorimetric assay) on U937 cells” value came out at 0.0129 µg/mL.
